IntAct's records for PubMed 36931259

B1: 14-3-3 protein sigma (Homo sapiens), P31947 (parent)
chain: MERASLIQKAKLAEQAERYEDMAAFMKGAVEKGEELSCEERNLLSVAYKNVVGGQRAAWRVLSSIEQKSNEEGSEEKGPEVREYREKVETELQGVCDTVLGLLDSHLIKEAGDAESRVFYLKMKGDYYRYLAEVATGDDKKRIIDSARSAYQEAMDISKKEMPPTNPIRLGLALNFSVFHYEIANSPEEAISLAKTTFDEAMADLHTLSEDSYKDSTLIMQLLRDNLTLWTADNAGEEGGEAPQEPQS
partner: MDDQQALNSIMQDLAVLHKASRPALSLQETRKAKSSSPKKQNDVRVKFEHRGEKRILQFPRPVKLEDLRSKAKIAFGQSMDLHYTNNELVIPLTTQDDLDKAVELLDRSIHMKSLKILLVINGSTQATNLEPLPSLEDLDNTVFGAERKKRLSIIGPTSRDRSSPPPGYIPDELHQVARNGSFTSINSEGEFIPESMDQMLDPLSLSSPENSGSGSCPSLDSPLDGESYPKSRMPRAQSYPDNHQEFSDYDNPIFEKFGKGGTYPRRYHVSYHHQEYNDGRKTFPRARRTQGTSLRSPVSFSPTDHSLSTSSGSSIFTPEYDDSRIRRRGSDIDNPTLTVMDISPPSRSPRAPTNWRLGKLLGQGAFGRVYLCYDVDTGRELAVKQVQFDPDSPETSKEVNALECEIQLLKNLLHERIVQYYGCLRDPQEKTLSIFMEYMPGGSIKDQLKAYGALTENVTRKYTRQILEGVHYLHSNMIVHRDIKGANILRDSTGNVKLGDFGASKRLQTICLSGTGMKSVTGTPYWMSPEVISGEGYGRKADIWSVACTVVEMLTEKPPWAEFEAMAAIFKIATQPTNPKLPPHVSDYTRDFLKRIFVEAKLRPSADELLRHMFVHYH
B2: 14-3-3 protein sigma (Homo sapiens), P31947 (parent)
chain: B1 chain
partner: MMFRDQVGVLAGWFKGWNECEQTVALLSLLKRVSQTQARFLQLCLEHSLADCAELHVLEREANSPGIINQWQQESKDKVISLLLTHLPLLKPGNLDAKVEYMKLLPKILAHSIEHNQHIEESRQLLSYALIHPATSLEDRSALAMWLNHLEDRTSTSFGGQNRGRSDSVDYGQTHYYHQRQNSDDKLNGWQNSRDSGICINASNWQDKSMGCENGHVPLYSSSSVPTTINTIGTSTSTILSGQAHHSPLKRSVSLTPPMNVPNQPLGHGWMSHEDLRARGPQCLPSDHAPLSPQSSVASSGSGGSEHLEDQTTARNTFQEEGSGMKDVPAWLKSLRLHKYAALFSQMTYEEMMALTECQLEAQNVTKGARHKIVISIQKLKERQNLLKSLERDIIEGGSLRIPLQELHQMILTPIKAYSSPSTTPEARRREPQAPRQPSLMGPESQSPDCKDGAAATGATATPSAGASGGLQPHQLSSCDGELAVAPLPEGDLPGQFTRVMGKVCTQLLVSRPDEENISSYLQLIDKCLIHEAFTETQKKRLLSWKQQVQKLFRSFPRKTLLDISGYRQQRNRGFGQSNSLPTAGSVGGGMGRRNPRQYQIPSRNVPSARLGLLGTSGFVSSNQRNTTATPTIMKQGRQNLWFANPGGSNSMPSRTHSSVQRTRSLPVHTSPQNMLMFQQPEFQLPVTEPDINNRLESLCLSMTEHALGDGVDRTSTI
B3: 14-3-3 protein sigma (Homo sapiens), P31947 (parent)
chain: B1 chain
partner: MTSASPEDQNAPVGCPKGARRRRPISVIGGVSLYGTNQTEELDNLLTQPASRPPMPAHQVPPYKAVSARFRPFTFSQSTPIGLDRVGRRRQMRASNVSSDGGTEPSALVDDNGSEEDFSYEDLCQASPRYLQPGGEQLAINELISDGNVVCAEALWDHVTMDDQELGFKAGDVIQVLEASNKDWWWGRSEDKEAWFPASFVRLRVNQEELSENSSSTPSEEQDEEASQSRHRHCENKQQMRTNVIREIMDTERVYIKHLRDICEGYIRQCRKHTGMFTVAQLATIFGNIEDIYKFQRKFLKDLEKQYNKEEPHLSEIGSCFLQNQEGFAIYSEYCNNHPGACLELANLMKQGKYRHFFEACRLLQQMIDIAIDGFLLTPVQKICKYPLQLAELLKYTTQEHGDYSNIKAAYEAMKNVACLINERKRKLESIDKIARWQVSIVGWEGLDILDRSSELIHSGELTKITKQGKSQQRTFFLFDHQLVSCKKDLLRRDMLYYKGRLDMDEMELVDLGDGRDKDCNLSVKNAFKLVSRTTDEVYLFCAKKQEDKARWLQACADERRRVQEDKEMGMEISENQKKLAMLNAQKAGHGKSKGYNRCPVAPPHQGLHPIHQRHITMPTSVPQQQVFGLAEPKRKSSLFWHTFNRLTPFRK
B4: 14-3-3 protein sigma (Homo sapiens), P31947 (parent)
chain: B1 chain
partner: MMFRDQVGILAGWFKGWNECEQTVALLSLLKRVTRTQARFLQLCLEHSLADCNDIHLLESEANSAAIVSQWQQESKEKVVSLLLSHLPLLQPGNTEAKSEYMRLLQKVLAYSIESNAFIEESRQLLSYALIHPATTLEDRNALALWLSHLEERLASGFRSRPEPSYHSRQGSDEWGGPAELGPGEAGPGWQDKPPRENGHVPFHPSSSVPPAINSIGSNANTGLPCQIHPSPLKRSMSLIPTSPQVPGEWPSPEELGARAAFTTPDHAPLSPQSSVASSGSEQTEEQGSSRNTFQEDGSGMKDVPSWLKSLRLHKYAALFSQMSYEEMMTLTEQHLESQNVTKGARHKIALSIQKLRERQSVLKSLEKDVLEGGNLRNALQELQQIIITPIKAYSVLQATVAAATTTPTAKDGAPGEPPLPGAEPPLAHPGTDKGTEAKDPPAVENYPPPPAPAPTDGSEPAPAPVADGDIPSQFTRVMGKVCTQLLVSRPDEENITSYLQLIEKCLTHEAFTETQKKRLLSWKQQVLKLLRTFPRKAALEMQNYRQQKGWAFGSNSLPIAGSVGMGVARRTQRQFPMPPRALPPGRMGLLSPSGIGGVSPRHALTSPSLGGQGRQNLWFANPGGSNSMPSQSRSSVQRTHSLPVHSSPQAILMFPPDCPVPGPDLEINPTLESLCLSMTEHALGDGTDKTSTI
B5: 14-3-3 protein sigma (Homo sapiens), P31947 (parent)
chain: B1 chain
partner: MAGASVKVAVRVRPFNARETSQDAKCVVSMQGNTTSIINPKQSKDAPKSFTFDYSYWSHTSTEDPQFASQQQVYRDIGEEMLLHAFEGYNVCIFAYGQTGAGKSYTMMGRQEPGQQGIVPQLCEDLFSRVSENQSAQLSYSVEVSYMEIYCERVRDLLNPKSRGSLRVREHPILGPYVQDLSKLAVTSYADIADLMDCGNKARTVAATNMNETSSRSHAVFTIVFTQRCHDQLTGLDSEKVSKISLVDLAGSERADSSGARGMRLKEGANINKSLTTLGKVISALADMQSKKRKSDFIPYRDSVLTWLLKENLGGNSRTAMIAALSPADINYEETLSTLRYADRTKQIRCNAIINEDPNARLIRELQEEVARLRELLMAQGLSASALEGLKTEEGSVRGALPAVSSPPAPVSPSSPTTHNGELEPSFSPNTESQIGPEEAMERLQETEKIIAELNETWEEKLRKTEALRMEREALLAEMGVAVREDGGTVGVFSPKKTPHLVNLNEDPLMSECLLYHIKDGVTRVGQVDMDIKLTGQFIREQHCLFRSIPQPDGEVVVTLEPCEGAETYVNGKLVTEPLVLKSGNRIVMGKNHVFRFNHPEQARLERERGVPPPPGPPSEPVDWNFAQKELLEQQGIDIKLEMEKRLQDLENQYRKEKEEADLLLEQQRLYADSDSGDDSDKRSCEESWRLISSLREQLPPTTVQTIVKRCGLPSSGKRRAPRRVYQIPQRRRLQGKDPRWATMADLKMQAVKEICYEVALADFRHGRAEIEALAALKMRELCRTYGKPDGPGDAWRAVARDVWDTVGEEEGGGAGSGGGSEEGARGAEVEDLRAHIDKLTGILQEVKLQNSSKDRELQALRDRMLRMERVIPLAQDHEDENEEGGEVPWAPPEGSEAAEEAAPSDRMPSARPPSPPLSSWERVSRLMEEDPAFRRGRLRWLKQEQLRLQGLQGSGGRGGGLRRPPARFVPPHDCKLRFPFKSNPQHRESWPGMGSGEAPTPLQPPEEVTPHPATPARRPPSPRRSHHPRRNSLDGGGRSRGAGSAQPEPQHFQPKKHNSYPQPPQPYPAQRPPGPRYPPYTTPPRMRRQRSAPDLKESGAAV

Variants of: B1
Settings: with m3k2_human MAP3K2, Q9Y2U5

| Variant | effect of a mutation on the interaction |
| --- | --- |
| K49E;R56E;V178D | decreasing interaction strength |

Variants of: B2
Settings: with smag1_human SAMD4A

| Variant | effect of a mutation on the interaction |
| --- | --- |
| K49E;R56E;V178D | decreasing interaction strength |

Variants of: B3
Settings: with spt13_human SPATA13, Q96N96

| Variant | effect of a mutation on the interaction |
| --- | --- |
| K49E;R56E;V178D | decreasing interaction strength |

Variants of: B4
Settings: with smag2_human SAMD4B

| Variant | effect of a mutation on the interaction |
| --- | --- |
| K49E;R56E;V178D | decreasing interaction strength |

Variants of: B5
Settings: with kif1c_human KIF1C

| Variant | effect of a mutation on the interaction |
| --- | --- |
| K49E;R56E;V178D | decreasing interaction strength |
